Measurements from US20110046887A1, “METHOD FOR ASSESSING PATHWAY PRODUCT LEVELS” (priority 2006, published 2011).

Tests used:
total Te = conditions: overnight after oral KTCZ 1000 mg with DEX 0.75 mg at midnight; reduced from 530±61; cited from earlier work
[1] = oral dosing in healthy men; cited from earlier work
Pulsatile LH secretion = test: Expected pulsatile LH secretion in KTCZ/DEX paradigm with Te addback; assay type: in vivo, human
Method: Volunteers (Forty (40) healthy men ages 18-80 years) arrived at a testing facility by 1730 hours and stayed two nights. At 1800-2000 hours, two i.v. catheters were placed in (contralateral) antecubital veins to allow concomitant saline or Te infusion and blood sampling. […] This regimen can reduce the concentration of total Te from 530±61 to 85±13 ng/dL overnight. […] Visits were greater than or equal to two weeks apart. The order of the four visits was prospectively randomized, and interventions were double-blind.
To enforce pulsatile negative feedback, 12 consecutive pulses of Te or saline was given i.v. on top of the basal infusion. […] To monitor LH and Te concentrations, blood samples (1.25 mL) were withdrawn every 10 min for 16 hours beginning at 0800 hours, FIG. 7.
Te was infused at a constant rate of 1.0 mg/24 hours from midnight (MN) until MN. There were 12 superimposed pulses each at a session-defined dose of zero (saline), 167, 333 or 500 μg delivered over 6 min every two hours from MN to 2200 hours. Resultant total (basal+pulsatile) Te infusion rates were equivalent to 1, 3, 5 and 7 mg/24 hours, thus spanning sub-, mid- and high-physiological Te production rates in healthy young men (normal interquartile range 4-6 mg/day) (Veldhuis et al., Physiological Basis of Aging and Geriatrics, 3rd edition, 213-231, Boca Raton, CRC Press (2003); Veldhuis, Reproductive Endocrinology, 4th edition, 622-631, Philadelphia, W.B. Saunders Co., (1999)). Crystalline testosterone was dissolved in 100% ethanol, diluted to less than 0.3% ethanol in normal saline, and microfiltered for i.v. infusion after sterility and pyrogen testing.
Estimates based on data described elsewhere (Zwart et al., J. Clin. Endocrinol. Metab. 82:2062-2069 (1997)) indicate that statistical power can exceed 90% to detect an effect of age that explains 33% or more of the variability in Te feedback sensitivity if 40 subjects are studied. The predicted slope±SD of feedback sensitivity regressed on age is (×10^−3) 1.5±0.25. […] Because an a priori postulate is that age reduces feedback sensitivity, a test of significance can be one-tailed; and because both sensitivity and efficacy can be examined, the experiment-wise critical value is P≦0.025.

[2] = Bayesian deconvolution of 24-hr pituitary-hormone concentration profiles (secretion and elimination parameters); assay type: in vivo, human; conditions: 24-hr 10-min sampled profile, ACTH, LH young, GH person
Method: The experimentalist requires an automated procedure by which to simultaneously detect pulse times and estimate secretion/kinetic features. […] In each case, discrete blood sampling (i.e., the withdrawal lasting 5-10 sec) was performed every 10 min for 24 hr. [Integrative sampling (continuous withdrawal) yields a time-integrated or flattened version of the impulse, thereby underestimating absolute peak values and overestimating interpulse valleys.] If the set (Y1, Y2, . . . , Yn) denotes observed hormone concentrations, n would be 145 for 10-min sampling over 24 hr. […] One would like to find values (a,b) so that, for a specified probability, e.g., 0.95, one can make the following probability statement:
Assuming that pulse-onset times are given by ℑm={T^1, T^2 . . . , T^m}, Keenan and Veldhuis give a model to estimate secretory dynamics conditional on pulse times (Keenan & Veldhuis, 1998; Keenan et al., 2000; Keenan et al., 1998). The primary components are basal and pulsatile secretion, a flexible secretory-burst shape, random effects on burst mass, biexponential elimination kinetics and combined experimental uncertainty in sample collection, processing and assay. We suppose that M, the amount of hormone secreted in the j^th burst (mass per unit distribution volume), is the sum of a finite amount of minimally available stores, a linear function of hormone accumulation over the preceding interpulse interval, and a random effect allowing for biological variability in individual burst mass:
In the present Bayesian approach, an a priori (prior) probability distribution is placed on the parameter space: Θ×ℑ, where ℑ={ℑN, ℑN-1, . . . , ℑp} in Eq. [16] and Θ denotes the parameter set in Eq. [14]. The prior density on Θ×ℑ is assumed to be a product: π×λ, with a uniform prior on Θ, π(θ)∝ to a Constant. The prior on ℑ is the Akaike Information Criterion (AIC) penalty for the number of pulse times m, λ(ℑm)∝exp(−m). […] Measured data Y=(Y1, Y2, . . . , Yn)′ are then incorporated via a likelihood function (Eq. [15]), resulting in the a posteriori (posterior) probability distribution on Θ×ℑ:
The algorithm of the present paper utilizes a mathematically justified procedure for simulating from the joint (Θ×ℑ) posterior distribution (Eq. [18]). The basic idea is that, for a given hormone concentration profile, one generates an array of (e.g. 100) simulations from the posterior distribution, which allows one then to make probabilistic statements about the parameters of pulse times, secretion and elimination.
total basal secretion as: n×β0, and total pulsatile as the difference. Repeated sampling of (θ,ℑm), and calculation of total pulsatile secretion (for each), produces a probability histogram approximating the posterior distribution for total pulsatile secretion, given an observed concentration profile. […] Specifically, in reference to Eq. [9]
Histograms are based on 100 simulations from the joint posterior distribution.

[3] = injected GnRH, i.v. bolus; cited from earlier work
[4] = 0.05 quantile of posterior distribution
[5] = 0.25 quantile of posterior distribution
[6] = 0.50 quantile of posterior distribution
[7] = 0.75 quantile of posterior distribution

CC(=O)N1CCN(c2ccc(OCC3COC(Cn4ccnc4)(c4ccc(Cl)cc4Cl)O3)cc2)CC1 (centres unmarked) [KTCZ, ketoconazole]
concentration of total Te (total Te): 85 ± 13 ng/dL | half-life [1]: six

C[C@]12CC[C@H]3[C@@H](CCC4=CC(=O)CC[C@@]43C)[C@@H]1CC[C@@H]2O [Te, testosterone]
Pulsatile LH secretion (Pulsatile LH secretion; oldest subjects, 1 mg Te addback, free Te decrement 15 ng/dL): 2.0 IU/L/min | Pulsatile LH secretion (Pulsatile LH secretion; oldest subjects, 7 mg Te addback (start of expected increase)): 0.65 IU/L/min | Pulsatile LH secretion (Pulsatile LH secretion; youngest subjects, 1 mg Te addback, free Te decrement 17 ng/dL): 3.5 IU/L/min | Pulsatile LH secretion (Pulsatile LH secretion; youngest subjects, 7 mg Te addback (start of expected increase)): 0.50 IU/L/min

adrenocorticotropin hormone (SYSMEHFRWGKPVGKKRRPVKVYPNGAEDESAEAFPLEF; Corticotropin; UniProt P01189 138-176, looked up) [ACTH, endogenous pituitary hormone measured in blood of a person]
Slow Half-Life [2, 4]: 9 min | Slow Half-Life [2, 5]: 11 min | Slow Half-Life [2, 6]: 15 min | Slow Half-Life [2, 7]: 19 min | Slow Half-Life ([2]; 0.95 quantile of posterior distribution): 25 min

gonadotropin-releasing hormone [GnRH]
first-phase half-life [3]: 3 to 7 min | second-phase half-life [3]: 35 to 50 min

growth hormone [GH]
Slow Half-Life [2, 4]: 28 min | Slow Half-Life [2, 5]: 31 min | Slow Half-Life [2, 6]: 31 min | Slow Half-Life [2, 7]: 31 min
